These sequences were tested on Escherichia coli TOP10 (assay: shrunken log2 fold change of peptide-encoding DNA abundance (4.5 h post-induction vs induction); higher = less antimicrobial activity (less host growth inhibition)). Settings: time post-induction: 4.5 h; library: site-saturation at positions 5, 18, 19, 20.
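Further: peptides expressed intracellularly from a pBAD plasmid library in pooled LB shake-flask culture, induced with 0.3% L-arabinose, DNA abundance read by NGS, three biological replicates, DESeq2 with apeglm shrinkage.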

Row | Sequence | shrunken log2 fold change
1 | RRIRMRPPRLPRPRPRPCVAPRP | 0.764
2 | RRIRMRPPRLPRPRPRPWIPPRP | -0.205
3 | RRIRTRPPRLPRPRPRPLHAPRP | 0.143
4 | RRIRCRPPRLPRPRPRPSVQPRP | -0.579
5 | RRIRVRPPRLPRPRPRPWVSPRP | -0.278
6 | RRIRERPPRLPRPRPRPAYIPRP | -0.168
7 | RRIRPRPPRLPRPRPRPFHEPRP | -0.187
8 | RRIRDRPPRLPRPRPRPHSLPRP | -0.341
9 | RRIRDRPPRLPRPRPRPDLEPRP | 0.0526
10 | RRIRFRPPRLPRPRPRPMHIPRP | -0.419
11 | RRIRMRPPRLPRPRPRPVIIPRP | -0.331
12 | RRIRPRPPRLPRPRPRPTALPRP | 0.0271
13 | RRIRYRPPRLPRPRPRPQLGPRP | -0.238
14 | RRIRSRPPRLPRPRPRPAWIPRP | -0.0375
15 | RRIRTRPPRLPRPRPRPDCIPRP | -0.0428
16 | RRIRVRPPRLPRPRPRPEDEPRP | 0.138
17 | RRIRRRPPRLPRPRPRPIYMPRP | -0.138
18 | RRIRGRPPRLPRPRPRPAHHPRP | 0.452
19 | RRIRTRPPRLPRPRPRPNGWPRP | 0.215
20 | RRIRCRPPRLPRPRPRPWDYPRP | 0.00188
21 | RRIRYRPPRLPRPRPRPQQTPRP | 0.019
22 | RRIRKRPPRLPRPRPRPLVRPRP | 0.114
23 | RRIRDRPPRLPRPRPRPGNTPRP | -0.165
24 | RRIRNRPPRLPRPRPRPTCQPRP | 0.0956
25 | RRIRARPPRLPRPRPRPWKHPRP | -0.0402

Row | Sequence | shrunken log2 fold change
26 | RRIRCRPPRLPRPRPRPRPRPRP | 0.83
27 | RRIRGRPPRLPRPRPRPCKSPRP | -0.00288
28 | RRIRRRPPRLPRPRPRPDHEPRP | 0.152
29 | RRIRVRPPRLPRPRPRPCEMPRP | 1.45
30 | RRIRKRPPRLPRPRPRPDVFPRP | -0.162
31 | RRIRRRPPRLPRPRPRPPRDPRP | 1.48
32 | RRIRFRPPRLPRPRPRPFMAPRP | -0.417
33 | RRIRYRPPRLPRPRPRPRVHPRP | -0.0416
34 | RRIRFRPPRLPRPRPRPAEVPRP | -0.127
35 | RRIRLRPPRLPRPRPRPKWYPRP | -0.299
36 | RRIRPRPPRLPRPRPRPSHKPRP | -0.0374
37 | RRIRVRPPRLPRPRPRPEPPPRP | 0.664
38 | RRIRTRPPRLPRPRPRPARHPRP | 0.189
39 | RRIRTRPPRLPRPRPRPVLSPRP | -0.328
40 | RRIRFRPPRLPRPRPRPFSGPRP | -0.0879
41 | RRIRWRPPRLPRPRPRPIMPPRP | -0.0977
42 | RRIRPRPPRLPRPRPRPMERPRP | -0.0425
43 | RRIRERPPRLPRPRPRPDSRPRP | -0.0302
44 | RRIRTRPPRLPRPRPRPDRPPRP | 0.188
45 | RRIRGRPPRLPRPRPRPGYNPRP | 0.0217
46 | RRIRTRPPRLPRPRPRPEIYPRP | -0.329
47 | RRIRDRPPRLPRPRPRPAQGPRP | 0.00228
48 | RRIRHRPPRLPRPRPRPKYCPRP | -0.000924
49 | RRIRFRPPRLPRPRPRPVQDPRP | -0.209
50 | RRIRDRPPRLPRPRPRPFLRPRP | 0.00895

Row | Sequence | shrunken log2 fold change
51 | RRIRPRPPRLPRPRPRPDFEPRP | -0.235
52 | RRIRQRPPRLPRPRPRPNPCPRP | -0.349
53 | RRIRWRPPRLPRPRPRPDFQPRP | 0.0985
54 | RRIRDRPPRLPRPRPRPTGTPRP | 0.0829
55 | RRIRERPPRLPRPRPRPESSPRP | -0.192
56 | RRIRGRPPRLPRPRPRPPGMPRP | 0.989
57 | RRIRMRPPRLPRPRPRPSWKPRP | -0.181
58 | RRIRLRPPRLPRPRPRPAVAPRP | 0.552
59 | RRIRYRPPRLPRPRPRPEAGPRP | -0.0468
60 | RRIRYRPPRLPRPRPRPVNFPRP | 0.00408
61 | RRIRTRPPRLPRPRPRPCPIPRP | -0.0712
62 | RRIRARPPRLPRPRPRPYQEPRP | 0.0175
63 | RRIRQRPPRLPRPRPRPSSSPRP | -1.39
64 | RRIRWRPPRLPRPRPRPEVDPRP | 1.87
65 | RRIRQRPPRLPRPRPRPMTHPRP | -0.466
66 | RRIRDRPPRLPRPRPRPLEPPRP | 0.239
67 | RRIRVRPPRLPRPRPRPPEQPRP | 0.0662
68 | RRIRQRPPRLPRPRPRPMSTPRP | -0.0212
69 | RRIRERPPRLPRPRPRPEKDPRP | -0.137
70 | RRIRIRPPRLPRPRPRPMIGPRP | -0.477
71 | RRIRCRPPRLPRPRPRPQQRPRP | 0.0521
72 | RRIRARPPRLPRPRPRPHISPRP | -0.278
73 | RRIRIRPPRLPRPRPRPPLAPRP | 0.293
74 | RRIRARPPRLPRPRPRPEHWPRP | 0.261
75 | RRIRSRPPRLPRPRPRPSEDPRP | -0.325

Row | Sequence | shrunken log2 fold change
76 | RRIRYRPPRLPRPRPRPDANPRP | -0.114
77 | RRIRWRPPRLPRPRPRPMGAPRP | 0.501
78 | RRIRHRPPRLPRPRPRPGHSPRP | -0.27
79 | RRIRWRPPRLPRPRPRPWFHPRP | -0.125
80 | RRIRHRPPRLPRPRPRPYTMPRP | -0.393
81 | RRIRYRPPRLPRPRPRPIYCPRP | -0.15
82 | RRIRCRPPRLPRPRPRPDYYPRP | -0.231
83 | RRIRNRPPRLPRPRPRPKDPPRP | 0.0665
84 | RRIRCRPPRLPRPRPRPLELPRP | 0.172
85 | RRIRSRPPRLPRPRPRPFRFPRP | -0.21
86 | RRIRQRPPRLPRPRPRPKYAPRP | -0.285
87 | RRIRCRPPRLPRPRPRPDMKPRP | -0.996
88 | RRIRTRPPRLPRPRPRPQWVPRP | 0.143
89 | RRIRQRPPRLPRPRPRPEMGPRP | 0.223
90 | RRIRVRPPRLPRPRPRPYEKPRP | -0.293
91 | RRIRRRPPRLPRPRPRPYQCPRP | 0.0675
92 | RRIRHRPPRLPRPRPRPKKDPRP | -0.494
93 | RRIRTRPPRLPRPRPRPEHEPRP | -0.109
94 | RRIRLRPPRLPRPRPRPMLWPRP | 0.00318
95 | RRIRERPPRLPRPRPRPPIYPRP | -0.633
96 | RRIRLRPPRLPRPRPRPPDHPRP | 0.0205
97 | RRIRCRPPRLPRPRPRPEAFPRP | 0.13
98 | RRIRIRPPRLPRPRPRPLAPPRP | 0.157
99 | RRIRERPPRLPRPRPRPHFMPRP | -0.221
100 | RRIRKRPPRLPRPRPRPTTLPRP | 0.0155

Row | Sequence | shrunken log2 fold change
101 | RRIRLRPPRLPRPRPRPQSVPRP | -0.325
102 | RRIRYRPPRLPRPRPRPHGNPRP | -0.573
103 | RRIRGRPPRLPRPRPRPGKCPRP | -0.0229
104 | RRIRPRPPRLPRPRPRPFDSPRP | -0.0336
105 | RRIRGRPPRLPRPRPRPQIPPRP | 0.25
106 | RRIRVRPPRLPRPRPRPSRPPRP | 0.196
107 | RRIRVRPPRLPRPRPRPQRLPRP | 0.275
108 | RRIRIRPPRLPRPRPRPRTKPRP | 0.161
109 | RRIRWRPPRLPRPRPRPFWHPRP | -0.0195
110 | RRIRSRPPRLPRPRPRPGFDPRP | 0.455
111 | RRIRWRPPRLPRPRPRPCMQPRP | 0.0574
112 | RRIRPRPPRLPRPRPRPLKCPRP | -0.131
113 | RRIRLRPPRLPRPRPRPIVIPRP | -1.37
114 | RRIRCRPPRLPRPRPRPTRWPRP | 0.284
115 | RRIRDRPPRLPRPRPRPGSNPRP | -0.153
116 | RRIRCRPPRLPRPRPRPIQPPRP | -0.137
117 | RRIRTRPPRLPRPRPRPVCQPRP | 2.97
118 | RRIRFRPPRLPRPRPRPAFNPRP | -0.367
119 | RRIRPRPPRLPRPRPRPNRDPRP | -0.271
120 | RRIRLRPPRLPRPRPRPQDAPRP | 0.0335
121 | RRIRRRPPRLPRPRPRPWSWPRP | -0.0122
122 | RRIRWRPPRLPRPRPRPIMRPRP | 0.0401
123 | RRIRQRPPRLPRPRPRPRIPPRP | 0.206
124 | RRIRFRPPRLPRPRPRPCDWPRP | -0.0151
125 | RRIRERPPRLPRPRPRPATPPRP | 1.31

From the supplement of paper PMC9112550, “Optimization of the antimicrobial peptide Bac7 by deep mutational scanning” (BMC Biology, 2022)
